In paper PMC7324491, “Non-native proteins inhibit the ER oxidoreductin 1 (Ero1)–protein disulfide-isomerase relay when protein folding capacity is exceeded” (The Journal of Biological Chemistry, 2020):
Ends that are not written are not given here. * marks the point of attachment. Biotin = O=C1N[C@H]2[C@H](CS[C@H]2CCCCC(=O)*)N1

Tests used:
Ero1α–PDI = molecular target: T1, Ero1α–PDI (Homo sapiens, UniProt P07237); assay: oxygen consumption assay; format: biochemical; settings: pH 7.0, 50 μM inhibitor pre- or postactivation, 10 μM PDI, 10 mM GSH; control compound
T1 construct: gene P4HB; with ERO1-like protein alpha
T1 sequence (P07237 18-508): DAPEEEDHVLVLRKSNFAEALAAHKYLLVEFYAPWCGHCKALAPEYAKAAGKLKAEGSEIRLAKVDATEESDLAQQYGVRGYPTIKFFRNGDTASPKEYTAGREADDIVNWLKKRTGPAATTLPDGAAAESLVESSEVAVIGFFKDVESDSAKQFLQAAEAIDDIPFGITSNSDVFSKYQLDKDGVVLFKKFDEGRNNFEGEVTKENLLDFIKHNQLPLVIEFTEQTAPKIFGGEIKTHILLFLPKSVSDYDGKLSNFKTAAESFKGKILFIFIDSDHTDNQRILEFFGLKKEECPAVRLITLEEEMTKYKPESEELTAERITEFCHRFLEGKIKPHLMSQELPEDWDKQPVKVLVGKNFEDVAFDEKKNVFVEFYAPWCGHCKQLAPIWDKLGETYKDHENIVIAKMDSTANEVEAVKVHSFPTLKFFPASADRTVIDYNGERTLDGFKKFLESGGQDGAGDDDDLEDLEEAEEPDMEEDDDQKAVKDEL
T1 sequence (Q96HE7 24-468 partner): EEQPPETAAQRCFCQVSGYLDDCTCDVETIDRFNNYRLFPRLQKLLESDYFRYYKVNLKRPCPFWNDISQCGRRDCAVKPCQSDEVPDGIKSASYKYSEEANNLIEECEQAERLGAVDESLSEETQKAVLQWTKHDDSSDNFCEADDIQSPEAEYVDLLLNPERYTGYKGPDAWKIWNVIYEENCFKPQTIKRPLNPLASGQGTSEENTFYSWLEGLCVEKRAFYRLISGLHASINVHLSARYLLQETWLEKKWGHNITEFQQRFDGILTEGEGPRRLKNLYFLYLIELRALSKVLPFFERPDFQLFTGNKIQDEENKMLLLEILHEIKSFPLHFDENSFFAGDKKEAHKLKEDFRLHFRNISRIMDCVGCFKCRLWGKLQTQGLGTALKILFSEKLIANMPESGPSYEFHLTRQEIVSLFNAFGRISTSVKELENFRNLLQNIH

[1] = molecular target: T2, His-tagged mature protein disulfide-isomerase (PDI) (human, UniProt P07237 18-508); assay: ITC; 600 μM KFWWFS injected into 27 μM PDI; 25 °C; 20 mM sodium phosphate, pH 7.0, 0.15 M NaCl; both treated with 1 mM DTT for 5 min before the measurement; settings: both partners purified
T2 construct: protein disulfide-isomerase (PDI), human, mature protein, domains a, b, b', a'; calculated mass of the construct 56379 Da; Treated with 1 mM DTT before ITC and in the BLI assays with the β-hairpin
T2 sequence (P07237 18-508): as the sequence (P07237 18-508) above

[2] = molecular target: T2, His-tagged mature protein …; assay: BLI; KFWWFS immobilised on AR2G biosensors; PDI at 0, 0.5, 1.0, 2.0 μM; 30 °C; 20 mM sodium phosphate, pH 7.0, 300 mM NaCl; 1:1 model, association and dissociation fitted separately; settings: both partners purified
[3] = molecular target: T2, His-tagged mature protein …; assay: BLI; biotin-labeled β-hairpin of Ero1α immobilised on SA biosensors; PDI at 0, 0.5, 1.0, 2.0, 4.0 μM; 30 °C; 20 mM sodium phosphate, pH 7.0, 300 mM NaCl, 1 mM DTT; 1:1 model; settings: both partners purified

C[C@]12CC[C@@H]3c4ccc(O)cc4CC[C@H]3[C@@H]1CC[C@H]2O [17α-estradiol] was tested. Which “inhibition at 50 μM” value (Ero1α–PDI) did it give?
The value was “it inhibited both activation and catalytic turnover, but only marginally”.

B1: peptide KFWWFS (peptide)
peptide: KFWWFS
notes: model peptide without cysteine that mimics the exposed hydrophobic core of protein substrates; Immobilised on AR2G biosensors for BLI; also called model peptide; source: lyophilized peptide dissolved in 10 mM HCl
What does the source list for B1?
Kd [1]: 6.8 µM; stoichiometry N [1]: 0.97; Kd [2]: 12.7 µM

B2: β-hairpin of Ero1α (RYLLQETWLEKKWGH) with an N-terminal biotin label (peptide)
peptide: Biotin-RYLLQETWLEKKWGH
notes: protruding β-hairpin of human ER oxidoreductin 1 alpha (Ero1α), with a tryptophan at the tip (Trp272); also called β-hairpin loop of Ero1α; source: synthetic peptide, synthesized by GenScript
How did the Kd [3] turn out when B2 was run?
Its Kd is 4 µM.
